T1: PUF4 RNA-binding domain (Saccharomyces cerevisiae, UniProt P25339 537-888)
T1 sequence: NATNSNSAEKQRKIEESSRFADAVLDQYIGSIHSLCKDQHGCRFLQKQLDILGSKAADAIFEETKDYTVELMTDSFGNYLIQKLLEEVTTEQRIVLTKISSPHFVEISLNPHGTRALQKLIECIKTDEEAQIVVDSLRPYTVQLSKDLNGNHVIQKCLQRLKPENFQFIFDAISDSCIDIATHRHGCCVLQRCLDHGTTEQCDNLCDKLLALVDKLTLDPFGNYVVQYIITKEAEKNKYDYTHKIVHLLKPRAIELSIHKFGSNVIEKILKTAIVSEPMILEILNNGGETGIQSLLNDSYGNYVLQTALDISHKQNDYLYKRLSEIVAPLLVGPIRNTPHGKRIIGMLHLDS

B1: Ib_S2_P5E.1_K5.1_C5.1_H5.1_[G2A]_A5.1_F5.1_[T8G]_T5.1 (ssRNA)
RNA: UUUGAUUAAUAUGAUAUCGUUCUUUCUUAUAUUAGUAUUCUUUCUCGAUAUCAUAUUAAUCUUU
B2: Ib_S2_P5E.1_K5.1_C5.1_H5.1_[G2T]_A5.1_F5.1_[A10C]_T5.1 (ssRNA)
RNA: B1 RNA with A29U, G35U, A37C
B3: Ia_S2_P5E.1_K5.1_C5.1_H5.1_A5.1_F5.1_[T8C]_T5.1 (ssRNA)
RNA: B1 RNA with A29G, G35C
B4: Ib_S2_P5E.1_K5.1_C5.1_H5.1_[A4C]_A5.1_F5.1_[A10T]_T5.1 (ssRNA)
RNA: B1 RNA with A29G, A31C, G35U, A37U
B5: Ic_S2_P5E.1_K5.1_C5.1_H5.1_A5.1_[T6A]_F5.1_[T9C]_T5.1 (ssRNA)
RNA: B1 RNA with A29G, U33A, G35U, U36C
B6: Ib_S2_P5E.1_K5.1_C5.1_H5.1_A5.1_[T5A]_F5.1_[T9A]_T5.1 (ssRNA)
RNA: B1 RNA with A29G, U32A, G35U, U36A
B7: Ib_S2_P5E.1_K5.1_C5.1_H5.1_[G2C]_A5.1_F5.1_[A10G]_T5.1 (ssRNA)
RNA: B1 RNA with A29C, G35U, A37G
B8: Ib_S2_P5E.1_K5.1_C5.1_H5.1_A5.1_[T5G]_F5.1_[T9C]_T5.1 (ssRNA)
RNA: B1 RNA with A29G, U32G, G35U, U36C
B9: Ia_S2_P5E.1_K5.1_C5.1_H5.1_A5.1_F5.1_[T8G]_T5.1 (ssRNA)
RNA: B1 RNA with A29G
B10: Ib_S2_P5E.1_K5.1_C5.1_H5.1_[T1A]_A5.1_F5.1_[T9C]_T5.1 (ssRNA)
RNA: B1 RNA with U28A, A29G, G35U, U36C
B11: Ib_S2_P5E.1_K5.1_C5.1_H5.1_A5.1_[A7C]_F5.1_[T8A]_T5.1 (ssRNA)
RNA: B1 RNA with A29G, A34C, G35A
B12: Ib_S2_P5E.1_K5.1_C5.1_H5.1_A5.1_[T5C]_F5.1_[A10C]_T5.1 (ssRNA)
RNA: B1 RNA with A29G, U32C, G35U, A37C
B13: Ib_S2_P5E.1_K5.1_C5.1_H5.1_[T3C]_A5.1_F5.1_[T8A]_T5.1 (ssRNA)
RNA: B1 RNA with A29G, U30C, G35A
B14: Ib_S2_P5E.1_K5.1_C5.1_H5.1_A5.1_[T5G]_F5.1_[T9A]_T5.1 (ssRNA)
RNA: B1 RNA with A29G, U32G, G35U, U36A
B15: Ib_S2_P5E.1_K5.1_C5.1_H5.1_[T3C]_A5.1_F5.1_[A10T]_T5.1 (ssRNA)
RNA: B1 RNA with A29G, U30C, G35U, A37U
B16: Ib_S2_P5E.1_K5.1_C5.1_H5.1_[T1A]_A5.1_F5.1_[A10C]_T5.1 (ssRNA)
RNA: B1 RNA with U28A, A29G, G35U, A37C
B17: Ib_S2_P5E.1_K5.1_C5.1_H5.1_[G2A]_A5.1_F5.1_[T9C]_T5.1 (ssRNA)
RNA: B1 RNA with G35U, U36C
B18: Ib_S2_P5E.1_K5.1_C5.1_H5.1_A5.1_[T5C]_F5.1_[T8A]_T5.1 (ssRNA)
RNA: B1 RNA with A29G, U32C, G35A
B19: Ib_S2_P5E.1_K5.1_C5.1_H5.1_A5.1_[T5A]_F5.1_[T8C]_T5.1 (ssRNA)
RNA: B1 RNA with A29G, U32A, G35C
B20: Ib_S2_P5E.1_K5.1_C5.1_H5.1_A5.1_[T5G]_F5.1_[A10C]_T5.1 (ssRNA)
RNA: B1 RNA with A29G, U32G, G35U, A37C
B21: Ib_S2_P5E.1_K5.1_C5.1_H5.1_[A4C]_A5.1_F5.1_[A10C]_T5.1 (ssRNA)
RNA: B1 RNA with A29G, A31C, G35U, A37C
B22: Ic_S2_P5E.1_K5.1_C5.1_H5.1_A5.1_[A7G]_F5.1_[T8G]_T5.1 (ssRNA)
RNA: B1 RNA with A29G, A34G
B23: Ib_S2_P5E.1_K5.1_C5.1_H5.1_[A4C]_A5.1_F5.1_[T8C]_T5.1 (ssRNA)
RNA: B1 RNA with A29G, A31C, G35C
B24: Ib_S2_P5E.1_K5.1_C5.1_H5.1_[A4T]_A5.1_F5.1_[T8C]_T5.1 (ssRNA)
RNA: B1 RNA with A29G, A31U, G35C
B25: Ic_S2_P5E.1_K5.1_C5.1_H5.1_A5.1_[A7C]_F5.1_[T9A]_T5.1 (ssRNA)
RNA: B1 RNA with A29G, A34C, G35U, U36A
B26: Ib_S2_P5E.1_K5.1_C5.1_H5.1_A5.1_[A7T]_F5.1_[T8C]_T5.1 (ssRNA)
RNA: B1 RNA with A29G, A34U, G35C
B27: Ib_S2_P5E.1_K5.1_C5.1_H5.1_A5.1_[T6A]_F5.1_[T9A]_T5.1 (ssRNA)
RNA: B1 RNA with A29G, U33A, G35U, U36A
B28: Ic_S2_P5E.1_K5.1_C5.1_H5.1_A5.1_[T6C]_F5.1_[T9A]_T5.1 (ssRNA)
RNA: B1 RNA with A29G, U33C, G35U, U36A
B29: Ib_S2_P5E.1_K5.1_C5.1_H5.1_[G2C]_A5.1_F5.1_[T9A]_T5.1 (ssRNA)
RNA: B1 RNA with A29C, G35U, U36A
B30: Ib_S2_P5E.1_K5.1_C5.1_H5.1_[A4T]_A5.1_F5.1_[T8A]_T5.1 (ssRNA)
RNA: B1 RNA with A29G, A31U, G35A
B31: Ib_S2_P5E.1_K5.1_C5.1_H5.1_A5.1_[T5G]_F5.1_[A10G]_T5.1 (ssRNA)
RNA: B1 RNA with A29G, U32G, G35U, A37G
B32: Ib_S2_P5E.1_K5.1_C5.1_H5.1_A5.1_[A7T]_F5.1_[T9A]_T5.1 (ssRNA)
RNA: B1 RNA with A29G, A34U, G35U, U36A
B33: Ib_S2_P5E.1_K5.1_C5.1_H5.1_A5.1_[T5C]_F5.1_[T9C]_T5.1 (ssRNA)
RNA: B1 RNA with A29G, U32C, G35U, U36C
B34: Ib_S2_P5E.1_K5.1_C5.1_H5.1_[T1A]_A5.1_F5.1_[A10T]_T5.1 (ssRNA)
RNA: B1 RNA with U28A, A29G, G35U, A37U
B35: Ib_S2_P5E.1_K5.1_C5.1_H5.1_[G2C]_A5.1_F5.1_[A10T]_T5.1 (ssRNA)
RNA: B1 RNA with A29C, G35U, A37U
B36: Ib_S2_P5E.1_K5.1_C5.1_H5.1_[T3C]_A5.1_F5.1_[T9A]_T5.1 (ssRNA)
RNA: B1 RNA with A29G, U30C, G35U, U36A
B37: Ib_S2_P5E.1_K5.1_C5.1_H5.1_[T3C]_A5.1_F5.1_[T8C]_T5.1 (ssRNA)
RNA: B1 RNA with A29G, U30C, G35C
B38: Ib_S2_P5E.1_K5.1_C5.1_H5.1_[T1C]_A5.1_F5.1_[A10G]_T5.1 (ssRNA)
RNA: B1 RNA with U28C, A29G, G35U, A37G
B39: Ib_S2_P5E.1_K5.1_C5.1_H5.1_[A4G]_A5.1_F5.1_[A10C]_T5.1 (ssRNA)
RNA: B1 RNA with A29G, A31G, G35U, A37C
B40: Ib_S2_P5E.1_K5.1_C5.1_H5.1_A5.1_[T5G]_F5.1_[T8C]_T5.1 (ssRNA)
RNA: B1 RNA with A29G, U32G, G35C
B41: Ib_S2_P5E.1_K5.1_C5.1_H5.1_A5.1_[A7G]_F5.1_[T9A]_T5.1 (ssRNA)
RNA: B1 RNA with A29G, A34G, G35U, U36A
B42: Ib_S2_P5E.1_K5.1_C5.1_H5.1_A5.1_[T6A]_F5.1_[T8A]_T5.1 (ssRNA)
RNA: B1 RNA with A29G, U33A, G35A
B43: Ib_S2_P5E.1_K5.1_C5.1_H5.1_[G2A]_A5.1_F5.1_[A10C]_T5.1 (ssRNA)
RNA: B1 RNA with G35U, A37C
B44: Ib_S2_P5E.1_K5.1_C5.1_H5.1_[G2A]_A5.1_F5.1_[A10G]_T5.1 (ssRNA)
RNA: B1 RNA with G35U, A37G
B45: Ib_S2_P5E.1_K5.1_C5.1_H5.1_A5.1_[T6A]_F5.1_[T8C]_T5.1 (ssRNA)
RNA: B1 RNA with A29G, U33A, G35C
B46: Ib_S2_P5E.1_K5.1_C5.1_H5.1_A5.1_[T6C]_F5.1_[T8C]_T5.1 (ssRNA)
RNA: B1 RNA with A29G, U33C, G35C
B47: Ib_S2_P5E.1_K5.1_C5.1_H5.1_A5.1_[T5C]_F5.1_[T8C]_T5.1 (ssRNA)
RNA: B1 RNA with A29G, U32C, G35C
B48: Ib_S2_P5E.1_K5.1_C5.1_H5.1_[T1C]_A5.1_F5.1_[A10C]_T5.1 (ssRNA)
RNA: B1 RNA with U28C, A29G, G35U, A37C
B49: Ib_S2_P5E.1_K5.1_C5.1_H5.1_[G2A]_A5.1_F5.1_[A10T]_T5.1 (ssRNA)
RNA: B1 RNA with G35U, A37U
B50: Ib_S2_P5E.1_K5.1_C5.1_H5.1_A5.1_[A7T]_F5.1_[T8A]_T5.1 (ssRNA)
RNA: B1 RNA with A29G, A34U, G35A
B51: Ia_S2_P5E.1_K5.1_C5.1_H5.1_A5.1_F5.1_[T8A]_T5.1 (ssRNA)
RNA: B1 RNA with A29G, G35A
B52: Ib_S2_P5E.1_K5.1_C5.1_H5.1_A5.1_[T5G]_F5.1_[T8A]_T5.1 (ssRNA)
RNA: B1 RNA with A29G, U32G, G35A
B53: Ib_S2_P5E.1_K5.1_C5.1_H5.1_[A4T]_A5.1_F5.1_[T9C]_T5.1 (ssRNA)
RNA: B1 RNA with A29G, A31U, G35U, U36C
B54: Ia_S2_P4E.1_K4.1_C4.1_H4.1_A4.1_[T7A]_F4.1_T4.1 (ssRNA)
RNA: UUUGAUUAAUAUGAUAUCGUUCUUUCUUGUAUAAUAUUCUUUCUCGAUAUCAUAUUAAUCUUU

Positions count from the first letter of the chain named. In names and notes the source's numbering stands.

The series deals with T1, PUF4 RNA-binding domain. As to the kind of experiment: Mg; RNA-MaP; 20 mM Na-HEPES pH 7.4, 30 mM KOAc, 0.75 mM MgCl2, 0.1% Tween-20, 5% glycerol, 0.1 mg/mL BSA, 2 mM DTT; 25 C; 0.0125-409.6 nM protein. Conditions: tags: N-His6-TEV cleaved; C-SNAP kept, Cy3B-labelled; label: tethered on chip by stalled RNA polymerase.
Consider B1, for which the Kd came out at 695 nM. The result for B2 reads more than 2300 nM; that for B3, 2.99 nM; that for B4, 180 nM. Under B5 stands 34 nM; under B6, 2.52 nM. Under B7 stands more than 2300 nM; under B8, 104 nM; under B9, 26.8 nM.

For B10, the dissociation constant Kd is more than 2300 nM. Under B11 stands 8.24 nM; under B12, 4.69 nM; under B13, 1260 nM. B14 registered a dissociation constant Kd of 5.43 nM. Against the preceding molecule, the Kd is about 230-fold lower. The molecule B15 displayed a dissociation constant (Kd) of 2020 nM. On to B16, for which the equilibrium dissociation constant (Kd) is more than 2300 nM. Under B17 stands 429 nM; under B18, 4.42 nM. Molecule B19 yielded a Kd of 7.72 nM.

In turn, B20 came in with a Kd of 61.5 nM. Under B21 stands 572 nM; under B22, 62.8 nM.

Molecule B23 displayed a Kd of 39.2 nM. The result for B24 reads 25 nM. The result for B25 reads 2.31 nM; that for B26, 3.48 nM; that for B27, 1.12 nM.

For the molecule B28, the affinity, expressed as Kd, was 0.834 nM. B29 showed an equilibrium dissociation constant (Kd) of 1690 nM.

With B30, the dissociation constant Kd turned out to be 27.9 nM. This Kd is about 61-fold lower than that of the molecule before.

The molecule B31 showed a Kd of 84.5 nM.

Turning to B32, the Kd was 2.01 nM. B33 yielded a dissociation constant (Kd) of 16.9 nM. This Kd lies about 8.4-fold higher than the previous one. Molecule B34 returned an equilibrium dissociation constant (Kd) of more than 2300 nM.

In turn, B35 returned a dissociation constant (Kd) of 1700 nM.

B36 displayed a dissociation constant Kd of 608 nM. Regarding B37, the Kd amounted to 562 nM. The result for B38 reads 1750 nM; that for B39, 106 nM; that for B40, 12.9 nM.

As for B41, the Kd came out at 10.6 nM. The Kd values of the last two molecules are within 1.5-fold of each other. Turning to B42, the affinity, expressed as Kd, was 5.15 nM. Under B43 stands 294 nM; under B44, 420 nM. Turning to B45, binding was characterised by a dissociation constant (Kd) of 5.31 nM. Take B46: the Kd turned out to be 3.8 nM. B47 gave a dissociation constant Kd of 2.86 nM. The result for B48 reads 2010 nM; that for B49, 137 nM.

Regarding B50, the dissociation constant (Kd) stood at 3.83 nM. This Kd is about 36-fold lower than that of the molecule before. Under B51 stands 6.54 nM.

B52 had a Kd of 31.4 nM. This Kd is about 4.8-fold higher than that of the molecule before. Molecule B53 gave a dissociation constant (Kd) of 1480 nM. Compared with the last molecule, the Kd is about 47-fold higher. Under B54 stands 0.749 nM.
